According to the nanobody polyreactivity screen of Harvey et al. (2022):

Assay: yeast display, Sf9 membrane polyspecificity reagent, FACS + sequencing; frameworks hold sequencing errors
Outline: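 Galactose-induced (36–48 hours) yeast carrying a synthetic nanobody display library were exposed to 10% biotinylated, detergent-solubilized Sf9 membrane reagent at 4 °C for 1 hour. FACS followed streptavidin microbead enrichment, using low and high (top ~1%) gates for expression (anti-HA) and reagent binding (streptavidin). Colony PCR, MiSeq 2 × 250 sequencing and CDR-length filtering followed. Labels for polyreactivity reflect the gate of origin.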

Sequence | polyreactivity (PSR sort gate)
QVHLVESGGGLVQAGGSLRLSCAASGSILARYAMGWYRQAPRKERELVASITTSGDSTYYADSVKGRFTISRDNAKNTVSLQMNSLIPEDTAVYYCARRRWGWGYQHFPYYYWGQGTQVTVSS | high polyreactivity
QVQLVESGGGLVQAGGSLRLSCAASGRITFSHNTMGGSRQAPGKERELVAAISSGGRTNYADSVKGRFTISRDNAKNTVYLQMNSLKPEDTAVYYCARESHYDFIYDGMDYWGQGTQVTVSS | low polyreactivity
QVQLVESAGGLVQAGGSLRLSCAASGRTFTCNAMGWYRQAPGKERELVAAISYSGGSTYYADSVKGRFTISRDNAKNTVYLQMNSLKPEDTAVYNCAVLGTPYGLNDYWGQGTQVTVSS | high polyreactivity
QVQLVESGRGLVQAGGSLRLSCAASGSIFTTNAMGWYRQAPGKERELVAAISKSGASTYYADSVKGRVTISRDNAKNTVYLQMNSLKPEDTAVYYCAAGLRYTGRFRFYYWGQGTQVTVSS | high polyreactivity
QVQLVESGGGLVQAGGSLRLSCAASGRNFYGYAMGWYRQAPGKERELVAAISWSGGSTYYADSVKGRFTISRDNAKNTVYLQMNSLKPEDTAVYYCARRYRGGYKYDYWGQGTQVTVSS | high polyreactivity
QVQHVESGGGLVQAGGSLRLSCAASGGIFERKDMGWYRQAHGKERQLVAGISSVGSTNYADSVKWRFTISRDNAKNTVYLQMNSLKPEDTAVYYCAAKRVRALYVGSEGGYWGQGTQVTVSS | low polyreactivity
QVQLVESGGGLVQAGGSLRLSCAASGRIFGRYAKGWYRQAPGKEMELVAAISRSGGSTYYADSVKGRFTISRDNAKNTVYLQMNSLKPEDTAVYDCAAVPGISVGRQPGYDSDYWGQGTQVTVSS | low polyreactivity
HAQLQESGGGLVQAGGSLRRSFAASGSIFRFSGMGWYRRAPGKERELVASIGFGSITYYADRVKGRFTISRDNANNTVYLQMNSLKPEDTAVYYCAVQVQDESWLDYWGQGTQVTVSC | low polyreactivity
QVQLVESGGGLVQAGGSLRLSCAASGRIFYYYTMAWYRQAPGKERELVAAISWGGVNTDYADSVKGRFTISRDNAKNTVYLQMNSLKPEDTAVYYCAAGRWSVGTYDYWGQGTQVTVSS | low polyreactivity
QVQLVESGGGLVQAGGSLRLSCAASGSIFYANAMGWYRQAPGKERELVAAISWSGGRTYYADSVKGRFTISRDNAKNTVYLQMNSLKPEDTAVYYCNVLPLYLEYDYWGQGTQVTVSS | high polyreactivity
QVQLVESGGGLVQAGGSLRLSCAASGSIFRYYAMGWYRQAPGKERELVAAITSSAGSTYYADSVKGRFTISRDNAKNTVYLQMNSLKPEDTAVYYCNALVQGKEYYWGQGTQVTVSS | high polyreactivity
QVQLVESGGGLVQAGGILRLSCAASGFTFNNYAMGWYRQAPGKERELVAAISSGAGTYYAESVKGRFTISRDNAKNTVYLQMNSLKPEDTGVYYCNASLKYQGRTRITYRHDYCGQGTQVTVSS | low polyreactivity
QVQLVESGGGLVHAGGSLRLTCAASGLTFAYYAMGWYRQAPGKERELVAAISWNGGRTYNADSVKGRFTISRDNAKNTVYLQMNSLKPEDTAVYYCAAQVTSSFYWGQGTQVTVSS | high polyreactivity
QVQLVESGGALVQAGGSLRLTCAASGSIYYVNAMGWYRQAPGKERELVAAISVRGGRTYYADSVKGRFTISRDNAKNTFYLQMNSLKPEDTEVYYCATRISTVGRYDYWGQGTQVTVSS | high polyreactivity
QDQHVESGGGLVQAGGSLRLSGADSGSIFLLYAMGCYRQAPGKERELVAAISTRDGSTYYADSVKGRFTISRDNAKNTVYLQMNSLKPEDTAVYYCATLYSYNYWGQGTQVTVSS | high polyreactivity
QVQLVESGGGLVQAGGSLRLSCAASGFTFDFYAMGWYRQAPGKERELVAAISRRGGRTSYADSVKGRFTISRDNAKNTVYLQMNSLKPEDTAVYYCAAASLGGDGLVAYYYWGQGTQVTVSS | high polyreactivity
QVQLVESGGGLVQAGGSHRLSCAASGRTFSGYAMGWYRQAPGKERELVAAISFSGGSTYYADSVKGRFTISRDNAKNTVYLQMNSLKPEDTAVYYCAAEFVRQNYEMDYWGQGTQVTVSS | low polyreactivity
QVQLVESGGGLVQAGGSLRLSCAASGRTFDRNTMGWYRQAPGKERELVAAISGSSARTYYADSVKGRFTISRDNAKNTVYLQMNSLKPEDTAVYYCNAEYGARAQHYEGDSWGQGTQVTVSS | high polyreactivity
EVQLVESGGGLVQAGGSLRLICAASGRTFQNYAMGWYRQAPGKERELVADITSGGSTYADSVKGRFTISRDNAKNTVYLQMNSLKPEDTAVYYCNADRTYPEPAEYYYWGQGTQVTVSS | low polyreactivity
QVQLVESGGGLVQAGGSLRLSCAASGFTFYSYTMGWYRQAPGKERELVAAITRGGRTYYADSVKGRFTISRDNAKNTVYLQMNSLKPEDTAVYYCAARVGSWTQSFGYDYWGQGTQVTVSS | high polyreactivity
QVQLVESGGGLVQAGGSLRLSCAASGRTFGWKARGWYRQAPGKEMELVAAISWSGTNTYDADSVKGRFTISRDNAKNTVYLQMNSLKPEDTAVYYCAARDWTGSWNGYWSWEYNYWGQGTQVTVSS | low polyreactivity
QFQLVESGGGLVQAGGSLRLSCAASGITFGSSAMGWYRQAPGKDRELVAAIDTSGDDTYYADSVKGRFTISRDNAKNTVYLQMNSLKPEDTAVYYCNAVSTASDEYDYWGQGSQVTVSS | low polyreactivity

Sequence | polyreactivity (PSR sort gate)
QVQLVESGGGLVQAGGSLRLSCASSGFIFYYNAMGWYRQAPVKERELVAAISYGGGSTYYADSVKGRFTISRDNAKNTVYLQMNSLKPEDTAVYYCSARVYWWNASLAGNYWGQGTQVTVSW | low polyreactivity
QVQLVESGGGILQARGSRPLICAASGSNLSYNAMGWYRQAPGKEREFVATITGTGGSTRYADSVKGRFTFSRDNAKNTVYLQMNSLNPEDTAVYYCATAAWWYYRIYHEFGFLGQGTQVTVSS | high polyreactivity
QVQLVESGGGLVQAGGSLRLSCAASGSIFYRNTMGWYRQAPGKERELVASINTGTGTYYADSVKGRFTISRDNAKNTVYLQMNSLKPEDTAVYYCNAKGWVWPFPSYYPYDSWGQGTQVTVSS | high polyreactivity
QVQLVESGRGLVQAGGSLRLSCAASGSTFPKNAMGWYRQAPGKERELVASISSDGSTYYADSVKGRFTISRDNAKNTVYLQMNSLKPEDTAVYYCAAVLWEPPVHPGYDYWGQVTQVTVSS | low polyreactivity
QVQLVESGGGLEQAGGSLRLSCAASGLTFSAYVMAWYRLAPGKERELVAAISRRGGSTYYAYSVKGRFTISRDNAKNTVYLQMNSLKPEDTAVYYCAARKVAVRGYGYWGQGTQVTVSS | high polyreactivity
QVQLVESGGGLVQAGGSLRLSCAASGSIFTFYTMGWYRQAPGKERELVAAISQTGGRTYYADSVKGRFTISRDNAKNTVYLQMNSLKPEDTAVYYCAARSKRLAHDYWGQGTQVTVSS | high polyreactivity
QVQLVESGGGLVQAGGSLRLSCSASGITFTGYGMGWYRQAPGKERELVAAIRLRTGSTYYADSVKGRFTISRDNAKNTVYLQMNSLKPEDTAVYYCAKKWSSKYWGQGTQVTVSS | high polyreactivity
QVQLVESGGGLVQAGGSLRLSCAASGRTFDIYAMGWYRQAPGKERELVAAINRSAGDTYYADSVKGGFTISRDNAKNTVYLQMNSLKPEDTAVYYCNAERVPYVPWLLYTEYVNYVYWGQGTQLTVSS | high polyreactivity
QVQLVESGGGLVQAGGSLRLSCAASGNIFSYYAMGWYRQATGIERELVAAISGRGTRTYYADSVKGRFSISRDNAMNTVYLQMNSLNPEDTAVYYCATEVRRLNEFDYWGQGTQVTVSS | high polyreactivity
QVQLVESGGGLVQAGGRLRLSCVASGSIFSGNAMGWYRQARGKERELVAAITRSGTSTYYADSVKGRFTISRDNAKNTVYLQMNSVKPEDTAVYYCATQYGRQRRAMYYWGQGTQVTVTS | high polyreactivity
QVQLVESGGGLVQAGGSLRLSCAASGSTFAGNPMGWYRQATGKERELVAAIDSSTGSTYYADSVKGRFTISRDNAMNTVYLQMNSLKPEDTAVYYCNKTSFLVKLDYWGQGTQVTVSS | low polyreactivity
QVQLVESGGGLVQAGGSLRLSCAASGNILGYYAMGWYRQAPGKERELVADINWDGGSTYYADSVKGRFTISRDNAKNTVYLQMNSLKPEDTAVYYCNAEVGITWWFREVDYWGQGTQVTVSS | high polyreactivity
QVQLVESGGGLVKAGGSLRLSCAASGSTSPFNAMGWYRQAPGKERELVAAITSGGSTHYADSVKGRFTISRDNAKNTVYLPMNRLKPEDSAVYYCAAEPVAYYGSSYGYWGQGTQVNVSS | low polyreactivity
QVQLVESGGGLVQAGGSLRLICSASGSIIEHYAMGWYRQAPGKERELVAAISWCGASTYYADSVKGRFTISRDNAKNTVYLQWYSLKPEDTAVYYCAAVFYGGGKRYYYWGQGTQVTVSS | high polyreactivity
QVHLVESGGGLVQAGGSLRLSCAASGITFTRYNMGWYRQAPGKERELVASIRRSGSTNYADSVKGRFTISRDNAKNTVYLQMNSLKPEDTAVFYCAAVNYGYPKPYDYWGQGTQVTVSS | high polyreactivity
QVQLVESGGGLVQAGGSLRLSCAASGSIFTPYAMGWYRQAPGKESELVAAIRSGTSTNYADSVKGRFTISRDNAKNTVYLQMNSLKPEDTAVYYCAAVYWSRFYVRYDYWGQGTQVTVSS | high polyreactivity
QVQLVESGGGLVQAGGSLRLSCAASGRTFRANVMGWYRQAPGKERELVAAISKSGGRTYYADSVKGRFTISRDNAKNTVYLQMNSLKPEDTAVYYCAADIPSYRGYGYDYWGQGTQVTVSS | high polyreactivity
QVQLVESGGGLVQAGGSLRLSCAASGRIFLTNTMGWYRQAPGKERELVAGISRGGRTYYADSVKGRFTISRDNAKNTVYLQMNSLKPEDTAVYYCNARLRHSQYAYYYWGQGTQVTVSS | high polyreactivity
QVQLVESGGGLVQAGGSLRLSCAASGSIFNYNAMGWYRQAPGKERELVATINKRAGRTYYADSVKGRFTISRDNAKNTVYLQMNSLKPEDTAVYYCAALHSGRVQNFDYWGQGTQVTVSS | high polyreactivity
QVQLVESGGGLVQAGGSLRLSCAASGFIFRVYAMGWYRQAPGKERELVAAITRNGGSTYYADSVKGRFTISRDNAKNTVYLQMNSLKPEDTAVYYCATVYSFGQNRDYWGQGTQVTVSS | high polyreactivity
QVQLVESGGGLVQAGGSLRLSCAASGRIFRYYAMGWYRQATGKQRELVAAISSGVGNTYYADSVKGRFTISRDNAKNTVYLQMNSLKPEDTAVYYCNAKWRKFGTVRYDYWGQGTQVTVSS | high polyreactivity
